Experimental data from US20060257396A1 (published 2006).

How the values were obtained:
[1] = target: T1, aggregated synthetic Aβ1-42 (UniProt P05067 672-713); experiment: ELISA on aggregated synthetic Aβ1-42
T1 construct: range 672-713; Aggregated form coated for ELISA; also called aggregated Aβ1-42; aggregate Aβ 1-42

Monomer = target: T2, Monomer (preparation treated with peroxynitrite; modified residues not stated ; The preparation was treated with peroxynitrite. The modified residues are not stated and cannot be shown in the letters.); experiment: immunoprecipitation of the peroxynitrite treated oligomeric Aβ1-42 preparation with the antibody, SDS-PAGE (16% Tricine), Western blot imaged with 3D6
T2 construct: Monomer fraction of the same preparation as m4; also called Aβ1-42 monomer; monomeric Aβ

[2] = target: T1, aggregated synthetic Aβ1-42; experiment: ELISA on aggregated synthetic Aβ1-42 (given as ED50)
[3] = target: T3, Aβ peptide (β-amyloid peptide; form and length not stated for the assay) (UniProt P05067 672-713); experiment: BIAcore, Langmuir model (global analysis)
T3 construct: also called beta amyloid peptide

[4] = target: T3, Aβ peptide (β-amyloid peptide; form and …); experiment: Biacore; humanized h12A11v1
[5] = target: T1, aggregated synthetic Aβ1-42; experiment: competitive Aβ ELISA with biotin conjugated mouse 12A11 Cγ2a
[6] = target: T3, Aβ peptide (β-amyloid peptide; form and …); experiment: ELISA competitive binding assay with biotinylated 3D6
[7] = target: T3, Aβ peptide (β-amyloid peptide; form and …); experiment: BIAcore
[8] = target: T3, Aβ peptide (β-amyloid peptide; form and …); experiment: average of competitive ELISA and BIAcore

| Binder | EC50 [1] | EC50 [2] | Ka [3] | Kd [3] | koff [3] | kon [3] | other results |
| --- | --- | --- | --- | --- | --- | --- | --- |
| murine 12B4 monoclonal antibody (antibody, V domains shown, Mouse hybridoma antibody; Leader left out; also called mAb 12B4) VH: QVTLKESGPGILQPSQTLSLTCSFSGFSLSTNGMGVSWIRQPSGKGLEWLAHIYWDEDKRYNPSLKSRLTISKDTSNNQVFLKITNVDTADTATYYCARRRIIYDVEDYFDYWGQGTTLTVSS VL: DVLMTQTPLSLPVSLGDQASISCRSSQNIVHSNGNTYLEWYLQKPGQSPKLLIYKVSNRFSGVPDRFSGSGSGTDFTLKISRVEAEDLGVYYCFQGSHVPLTFGAGTKLELK | < 1 nM | 0.667 nM | – | – | – | – | binding result (Monomer): binds |
| humanized 12A11 version 2 (antibody, V domains shown, V region subcloned into heavy chain expression vector pCMV-Cgamma1 (human γ1); also called h12A11v2) VH: QVQLVESGGGVVQPGRSLRLSCAFSGFTLSTSGMSVGWIRQAPGKGLEWVAHIWWDDDKYYNPSLKSRFTISKDTSKNTLYLQMNSLRAEDTAVYYCARRTTTADYFAYWGQGTTVTVSS VL: DVVMTQSPLSLPVTPGEPASISCRSSQSIVHSNGNTYLEWYLQKPGQSPQLLIYKVSNRFSGVPDRFSGSGSGTDFTLKISRVEAEDVGVYYCFQSSHVPLTFGQGTKLEIK | – | – | 6.86e+07 M⁻¹ | 14.6 nM | 0.00412 s⁻¹ | 283000 M⁻¹ s⁻¹ | – |
| humanized 12A11 version 1 (antibody, V domains shown, Variable regions only tied to the tested antibody; also called h12A11v1; humanized 12A11 v1) VH: QVQLVESGGGVVQPGRSLRLSCAFSGFSLSTSGMSVGWIRQAPGKGLEWLAHIWWDDDKYYNPSLKSRLTISKDTSKNTVYLQMNSLRAEDTAVYYCARRTTTADYFAYWGQGTTVTVSS VL: DVVMTQSPLSLPVTPGEPASISCRSSQSIVHSNGNTYLEWYLQKPGQSPQLLIYKVSNRFSGVPDRFSGSGSGTDFTLKISRVEAEDVGVYYCFQSSHVPLTFGQGTKLEIK | – | – | 3.48e+08 M⁻¹ | 2.87 nM | 0.00117 s⁻¹ | 408000 M⁻¹ s⁻¹ | Kd [4]: 23 nM; IC50 ratio to murine and chimeric 12A11 [5]: ≤ 2 fold |
| humanized 12A11 version 2.1 (antibody, V domains shown, Variable regions only; made like version 2; also called h12A11v2.1) VH: QVQLVESGGGVVQPGRSLRLSCAFSGFTLSTSGMSVGWIRQAPGKGLEWVAHIWWDDDKYYNPSLKSRFTISKDNSKNTLYLQMNSLRAEDTAVYYCARRTTTADYFAYWGQGTTVTVSS VL: DVVMTQSPLSLPVTPGEPASISCRSSQSIVHSNGNTYLEWYLQKPGQSPQLLIYKVSNRFSGVPDRFSGSGSGTDFTLKISRVEAEDVGVYYCFQSSHVPLTFGQGTKLEIK | – | – | 1.17e+08 M⁻¹ | 8.54 nM | 0.00261 s⁻¹ | 306000 M⁻¹ s⁻¹ | – |
| humanized 12A11 version 3 (antibody, V domains shown, Variable regions only; made like version 2; also called h12A11v3; humanized 12A11 v3) VH: QVQLVESGGGVVQPGRSLRLSCAFSGFTLSTSGMSVGWIRQAPGKGLEWVAHIWWDDDKYYNPSLKSRFTISRDNSKNTLYLQMNSLRAEDTAVYYCARRTTTADYFAYWGQGTTVTVSS VL: DVVMTQSPLSLPVTPGEPASISCRSSQSIVHSNGNTYLEWYLQKPGQSPQLLIYKVSNRFSGVPDRFSGSGSGTDFTLKISRVEAEDVGVYYCFQSSHVPLTFGQGTKLEIK | – | – | 6.53e+07 M⁻¹ | 15.3 nM | 0.0055 s⁻¹ | 359000 M⁻¹ s⁻¹ | – |
| humanized 12A11 version 3.1 (antibody, V domains shown, Variable regions only tied to the tested antibody; also called h12A11v3.1; humanized 12A11 v3.1) VH: QVQLVESGGGVVQPGRSLRLSCAFSGFTLSTSGMSVGWIRQAPGKGLEWLAHIWWDDDKYYNPSLKSRFTISKDNSKNTLYLQMNSLRAEDTAVYYCARRTTTADYFAYWGQGTTVTVSS VL: DVVMTQSPLSLPVTPGEPASISCRSSQSIVHSNGNTYLEWYLQKPGQSPQLLIYKVSNRFSGVPDRFSGSGSGTDFTLKISRVEAEDVGVYYCFQSSHVPLTFGQGTKLEIK | – | – | 1.67e+08 M⁻¹ | 5.99 nM | 0.00313 s⁻¹ | 523000 M⁻¹ s⁻¹ | – |
| humanized 3D6 version 1 (antibody, V domains shown, also called h3D6v1; h3D6 v1) VH: EVQLLESGGGLVQPGGSLRLSCAASGFTFSNYGMSWVRQAPGKGLEWVASIRSGGGRTYYSDNVKGRFTISRDNAKNSLYLQMNSLRAEDTALYYCVRYDHYSGSSDYWGQGTLVTVSS VL: YVVMTQSPLSLPVTPGEPASISCKSSQSLLDSDGKTYLNWLLQKPGQSPQRLIYLVSKLDSGVPDRFSGSGSGTDFTLKISRVEAEDVGVYYCWQGTHFPRTFGQGTKVEIK | – | – | – | – | – | – | fold less binding affinity than 3D6 [6]: ~6 fold; Kd [7]: 2.06 nM; fold loss of binding affinity against murine 3D6 [8]: ~3 fold |
| humanized 3D6 version 2 (antibody, V domains shown, also called h3D6v2; h3D6 v2) VH: EVQLLESGGGLVQPGGSLRLSCAASGFTFSNYGMSWVRQAPGKGLEWVASIRSGGGRTYYSDNVKGRFTISRDNSKNTLYLQMNSLRAEDTAVYYCVRYDHYSGSSDYWGQGTLVTVSS VL: DVVMTQSPLSLPVTPGEPASISCKSSQSLLDSDGKTYLNWLLQKPGQSPQRLIYLVSKLDSGVPDRFSGSGSGTDFTLKISRVEAEDVGVYYCWQGTHFPRTFGQGTKVEIK | – | – | – | – | – | – | fold less binding affinity than 3D6 [6]: ~6 fold; Kd [7]: 2.24 nM; fold loss of binding affinity against murine 3D6 [8]: ~3 fold |
| monoclonal antibody 2C1 (antibody, V domains shown) VH: EVQLQQSGAELVKPGASVKLSCTGSGFNIKVYYVHWLKQLTEQGLEWIGRIDPENGETIYAPKFQDKATLTVDTSSNTAYLQLSSLTSEDTAVYYCVSSGYWGQGTTLTVSS VL: DIVMTQSAFSNPVTLGTSASISCRSSKSLLHRNGITYLYWYLQKPGQSPQLLIYQMSNLASGVPDRFTSSGSGTDFTLKISRVEAEDVGVYYCAQNLELWTFGGGTKLEIK | < 1 nM | 0.333 nM | – | – | – | – | – |
| murine 12A11 monoclonal antibody (antibody, mouse IgG1, V domains shown, also called mu12A11; m12A11) VH: QVTLKESGPGILKPSQTLSLTCSFSGFSLSTSGMSVGWIRQPSGKGLEWLAHIWWDDDKYYNPSLKSRLTISKDTSRNQVFLKITSVDTADTATYYCARRTTTADYFAYWGQGTTLTVSS VL: DVLMTQTPLSLPVSLGDQASISCRSSQSIVHSNGNTYLEWYLQKPGQSPKLLIYKVSNRFSGVPDRFSGSGSGTDFTLKISRVEAEDLGIYYCFQSSHVPLTFGAGTKLELK | < 1 nM | 0.233 nM | – | – | – | – | – |
